Data as given in paper PMC6969166, “The molecular basis of pyrazinamide activity on Mycobacterium tuberculosis PanD” (Nature Communications, 2020).

Target: the molecule itself
Experiment: crystal structure

B1: Mycobacterium tuberculosis PanD (aspartate decarboxylase), wild type, processed active enzyme (enzyme)
chain 1: MLRTMLKSKIHRATVTCADLHYVG
chain 2: SVTIDADLMDAADLLEGEQVTIVDIDNGARLVTYAITGERGSGVIGINGAAAHLVHPGDLVILIAYATMDDARARTYQPRIVFVDAYNKPIDMGHDPAFVPENAGELLDPRLGVG
notes: also called Mtb PanD; Rv3601c; copies: 4 + 4
  stoichiometry N: 4
